T1: FDC1 (Saccharomyces cerevisiae, UniProt Q03034)
T1 construct: 6xHis (N-terminal tag of vector pDEST17); made in house; host or cells: E. coli BL21(DE3)
T1 sequence (Q03034 1-503): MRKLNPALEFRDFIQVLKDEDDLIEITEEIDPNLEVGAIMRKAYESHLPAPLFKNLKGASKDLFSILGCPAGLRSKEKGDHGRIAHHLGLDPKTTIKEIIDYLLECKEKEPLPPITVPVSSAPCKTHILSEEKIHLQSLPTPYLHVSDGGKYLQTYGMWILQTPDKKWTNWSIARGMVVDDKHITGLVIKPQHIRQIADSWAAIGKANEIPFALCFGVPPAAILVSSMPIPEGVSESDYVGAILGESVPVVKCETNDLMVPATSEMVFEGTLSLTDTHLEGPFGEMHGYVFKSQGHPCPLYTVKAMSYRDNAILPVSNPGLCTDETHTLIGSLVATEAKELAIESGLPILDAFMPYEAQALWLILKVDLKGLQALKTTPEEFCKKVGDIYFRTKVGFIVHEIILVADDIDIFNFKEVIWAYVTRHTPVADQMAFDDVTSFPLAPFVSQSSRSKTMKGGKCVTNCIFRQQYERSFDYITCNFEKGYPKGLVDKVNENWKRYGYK

T2: yeast FDC (ferulic acid decarboxylase, FDC1, Saccharomyces cerevisiae) in prey vector pGADT7-Gateway (Saccharomyces cerevisiae, UniProt Q03034 1-503)
T2 construct: Yeast two-hybrid prey fusion expressed in Clontech Y2HGold cells; also called FDC (Prey vector); not shown: fusion partner encoded by yeast two-hybrid prey vector pGADT7-Gateway
T2 sequence: T1 sequence (Q03034 1-503)

B1: PAD1: phenylacrylic acid decarboxylase from S. cerevisiae, SEQ ID NO:10 encoded by SEQ ID NO:9 (protein, listed as Saccharomyces cerevisiae)
chain: MLLFPRRTNIAFFKTTGIFANFPLLGRTITTSPSFLTHKLSKEVTRASTSPPRPKRIVVAITGATGVALGIRLLQVLKELSVETHLVISKWGAATMKYETDWEPHDVAALATKTYSVRDVSACISSGSFQHDGMIVVPCSMKSLAAIRIGFTEDLITRAADVSIKENRKLLLVTRETPLSSIHLENMLSLCRAGVIIFPPVPAFYTRPKSLHDLLEQSVGRILDCFGIHADTFPRWEGIKSK
B2: yeast FDC (ferulic acid decarboxylase, FDC1, Saccharomyces cerevisiae) in bait vector pGBKT7-Gateway (enzyme)
chain: T1 sequence (Q03034 1-503)
notes: Yeast two-hybrid bait fusion expressed in Clontech Y2HGold cells; also called FDC (Bait vector); not shown: fusion partner encoded by yeast two-hybrid bait vector pGBKT7-Gateway
B3: yeast PAD1 (phenylacrylic acid decarboxylase, Saccharomyces cerevisiae) in bait vector pGBKT7-Gateway (enzyme)
chain: VAITGATGVALGIRLLQVLKELSVETHLVISKWGAATMKYETDWEPHDVAALATKTYSVRDVSACISSGSFQHDGMIVVPCSMKSLAAIRIGFTEDLITRAADVSIKENRKLLLVTRETPLSSIHLENMLSLCRAGVIIFPPVPAFYTRPKSLHDLLEQSVGRILDCFGIHADTFPRWEGIKSK
notes: Yeast two-hybrid bait fusion expressed in Clontech Y2HGold cells; also called PAD1 (Bait vector); not shown: fusion partner encoded by yeast two-hybrid bait vector pGBKT7-Gateway
B4: yeast PAD1 (phenylacrylic acid decarboxylase, Saccharomyces cerevisiae) in prey vector pGADT7-Gateway (enzyme)
chain: B3 chain
notes: Yeast two-hybrid prey fusion expressed in Clontech Y2HGold cells; also called PAD1 (Prey vector); not shown: fusion partner encoded by yeast two-hybrid prey vector pGADT7-Gateway

Assays:
FDC1 = target: T1, FDC1; experiment: Effect of metal ions on activity of purified FDC1; assay type: biochemical; details: 10 mM metal ion, 1.4 mM tCA, pH 6.5, 5 minutes at 30° C., versus control without metal ions
Method: To study the effect of metal ions on FDC1 activity, we carried out reactions with various metal ions, including ZnSO4, FeCl3, MnCl2, MgSO4, CaCl2, MnSO4, and FeSO4. Reaction mixtures of 25 mM potassium phosphate buffer pH 6.5 containing 1.4 mM tCA, 5 mM DTT, 10 mM metal ion, and 0.5 mg purified FDC1 adjusted to a final volume of 1 mL were incubated for 5 minutes at 30° C. After the reaction, 1 mL of propanol was added to the reaction mixtures to solubilize styrene. The experimental control used the same conditions except the reaction mixture contained no metal ions. The experimental negative control used the same conditions except the reaction mixture contained no substrate. […] The effects of Zn^2+ and Fe^3+ on FDC1 activity were further investigated using EDTA to cancel out the effects of the metal ions. Reaction mixtures of 25 mM potassium phosphate buffer pH 6.5 containing 1.4 mM tCA, 5 mM DTT, 10 mM metal ion, 10 mM EDTA and 0.5 mg purified FDC1 were adjusted to a final volume of 1 mL, and were incubated for 5 minutes at 30° C. After the reaction, 1 mL of propanol was added to the reaction mixtures to solubilize styrene. The experimental control used the same conditions except the reaction mixture contained no metal ions or EDTA. The experimental negative control used the same conditions except the reaction mixture contained no substrate. […] Based on results presented in FIGS. 10A and 10B, enzyme activity of FDC1 can be increased by metal ions and it was not due to experimental artifact.

cinnamic acid [1] = experiment: Feeding cinnamic acid to Wat11 yeast expressing the enzyme, HPLC of products; assay type: cell-based, S. cerevisiae; details: 2 mM cinnamic acid, extracted after 8 hours
Method: (§1) 0.8 ml of well-suspended cultures was taken out of the culture tube and 0.4 ml of ethyl acetate was added. The mixture was votexed at the maximum speed for half an hour and centrifuged at 15,000 rpm for 10 min at room temperature.
The extracted samples were analyzed by HPLC. HPLC was performed with an Agilent 1100 Series HPLC system using a SymmetryShield C18 column (Waters, 150×3.9 mm). The mobile phase consisted of solvent A (0.1% trifluoroacetic acid) and solvent B (acetonitrile). The gradient elution procedure was as follows: 0-5 min, 0% of B; 5-35 min, a linear gradient from 0% to 90% of B; 35-38 min, 90% of B; 38-40 min, 0% of B. The flow rate was 1.0 ml/min. The injection volume was 30 μl. Peaks for substrate and products areas were monitored at 260 nm. With this method, the retention times for cinnamic acid, p-coumaric acid, ferulic acid, styrene, 4-hydroxystyrene, and 4-vinylguaiacol (4-VG) were 21.5, 17.7, 17.7, 27.8, 22.3 and 22.1 min, respectively. […]
After transformation, 100 μl of the transgenic yeast culture was spread on SD-trp medium (Clontech, Mountain View, Calif.) and incubated at 30° C. for 3 days. […] 2 mM cinnamic acid was added to 2 d-old yeast culture and the products were extracted with ethyl acetate after 8 hours and analyzed by HPLC.

cinnamic acid [2] = experiment: Feeding cinnamic acid to E. coli BL21AI expressing the enzyme, HPLC of products; assay type: cell-based; details: 2 mM cinnamic acid, 37° C.
Method: as §1
(§2) The extracted samples were analyzed by HPLC. HPLC was performed with an Agilent 1100 Series HPLC system using a SymmetryShield C18 column (Waters, 150×3.9 mm). The mobile phase consisted of solvent A (0.1% trifluoroacetic acid) and solvent B (acetonitrile). The gradient elution procedure was as follows: 0-5 min, 0% of B; 5-35 min, a linear gradient from 0% to 90% of B; 35-38 min, 90% of B; 38-40 min, 0% of B. The flow rate was 1.0 ml/min. The injection volume was 30 μl. Peaks for substrate and products areas were monitored at 260 nm. With this method, the retention times for cinnamic acid, p-coumaric acid, ferulic acid, styrene, 4-hydroxystyrene, and 4-vinylguaiacol (4-VG) were 21.5, 17.7, 17.7, 27.8, 22.3 and 22.1 min, respectively.
Plasmid pDEST17-PAD1 was transformed into E. coli strain BL21AI competent cells (Invitrogen). An overnight culture (2 ml) was inoculated into 40 ml of LB medium supplemented with 100 µg/ml ampicillin. Bacteria were grown at 37° C. in a shaker at 250 rpm for 3 h and then 0.2% (w/v) arabinose was added to the culture, followed by the addition of 2 mM of cinnamic acid. […]

cinnamic acid [3] = experiment: Comparison of PAD1, FDC and OHBA1 activities in E. coli fed 1-40 mM cinnamic acid; assay type: cell-based
Method: Sample (0.5 ml) was taken various treatments, and extracted with 0.3 ml of ethyl acetate. The upper phase was used for the analysis of the product styrene, and the lower phase for the analysis of cinnamic acid left in the medium.

p-coumaric acid = experiment: Feeding p-coumaric acid to Wat11 yeast expressing FDC, HPLC of products; assay type: cell-based, S. cerevisiae
Method: as §1, §2

ferulic acid [4] = experiment: Feeding ferulic acid to Wat11 yeast expressing FDC, HPLC of products; assay type: cell-based, S. cerevisiae
Method: as §1, §2

ferulic acid [5] = experiment: Feeding ferulic acid to E. coli BL21AI expressing FDC, HPLC of products; assay type: cell-based
Method: as §1, §2
In E. coli, pDEST17-FDC was transformed into E. coli strain BL21AI competent cells (Invitrogen). An overnight culture (2 ml) was inoculated into 40 ml of LB medium supplemented with 100 µg/ml ampicillin. […] The induced culture was further incubated at 37° C. and samples were taken at different time points for the analysis.

[6] = target: T2, yeast FDC (ferulic acid decarboxylase, …); experiment: yeast two-hybrid, growth on SD-Trp-Leu-His plate (bait FDC, prey FDC)
Method: (§3) We used yeast-two-hybrid system to test this hypothesis. […] Vectors pGBKT7-Gateway and pGADT7-Gateway are gifts from Dr. Brian P. Downes, Department of Biology, St Louis University (St Louis, Mo.). The resulting vectors were used to transform Clontech Y2HGold cells by one step transformation protocol as described in Example 4. 100 μl of the transformed cultures were spread on SD-Trp-Leu as well as SD-Trp-Leu-His plates and incubated at 30° C. for 3 days.

[7] = target: T2, yeast FDC (ferulic acid decarboxylase, …); experiment: yeast two-hybrid, growth on SD-Trp-Leu-His plate (bait PAD1, prey FDC)
Method: as §3

[8] = target: B2; experiment: yeast two-hybrid, growth on SD-Trp-Leu-His plate (bait FDC, prey PAD1)
Method: as §3

`[Ca+2].[Cl-].[Cl-]` [Ca^+2, CaCl2] was tested, and the “effect on FDC1 activity (styrene produced)” value (shortened to “effect on FDC1 activity”) (FDC1) was “increased the activity of FDC1”.

With `[Cl][Fe]([Cl])[Cl]` [Fe^+3, FeCl3] the “effect on FDC1 activity” value (FDC1) was “increased the activity of FDC1”.

For `O=S(=O)([O-])[O-].[Mg+2]` [Mg^+2, MgSO4], the “effect on FDC1 activity” value (FDC1) was “increased the activity of FDC1”.

With `O=S(=O)([O-])[O-].[Zn+2]` [Zn^+2, ZnSO4] the “effect on FDC1 activity” value (FDC1) was “increased the activity of FDC1”.

For B1, the “styrene production upon feeding of cinnamic acid” value (cinnamic acid [1]) was “no styrene can be observed”, the “styrene production upon feeding of cinnamic acid” value (cinnamic acid [2]) was “no styrene production was observed” and the “styrene production upon feeding of cinnamic acid” value (cinnamic acid [3]; E. coli in LB+Amp medium, 1-10 mM cinnamic acid) was “failed to produce any styrene”.

For B2, the “styrene production upon feeding of cinnamic acid” value (cinnamic acid [1]) was “production of styrene”, the “4-hydroxystyrene production upon feeding of p-coumaric acid” value (p-coumaric acid) was “production of 4-hydroxystyrene” and the “4-VG production upon feeding of ferulic acid” value (ferulic acid [4]) was “production of 4-VG”. The “styrene production upon feeding of cinnamic acid” value (cinnamic acid [2]) was “Production of styrene was observed”, the “4-vinylguaiacol (4-VG) production upon feeding of ferulic acid” value (ferulic acid [5]) was “Production of 4-vinylguaiacol (4-VG) was also observed” and the styrene biosynthesis (cinnamic acid [3]; E. coli, after feeding on cinnamic acid substrate for 2 h) was 94.6 mg/L. B2: binds [6].

B3: no binding [7].

B4: no binding [8].
